Laboratory results published in publication PMC4189953.

Legend:
[1] = biological target: CFP-tagged ICln (C-ICln) (human) (UniProt P54105); assay: FRET or BRET; acceptor photobleaching FRET (FRETeff), living HEK cells 24 h after transfection, 37°C, slightly hypertonic extracellular solution (317 mOsm, pH 7.4); CFP donor, YFP acceptor; whole cell bleached
[2] = biological target: CFP-tagged ICln (C-ICln) (human) (UniProt P54105); assay: FRET or BRET; acceptor photobleaching FRET (FRETeff), living HEK cells, 37°C, after 10 min exposure to the hypotonic extracellular solution; CFP donor, YFP acceptor

Sequence of UniProt P54105 (P54105 whole entry): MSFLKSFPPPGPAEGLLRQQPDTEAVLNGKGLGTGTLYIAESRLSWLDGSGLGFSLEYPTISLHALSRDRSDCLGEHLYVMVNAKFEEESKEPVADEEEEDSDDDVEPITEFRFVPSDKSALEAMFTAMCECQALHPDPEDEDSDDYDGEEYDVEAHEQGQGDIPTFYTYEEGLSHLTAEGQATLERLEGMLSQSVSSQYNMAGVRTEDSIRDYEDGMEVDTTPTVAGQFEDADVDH

FRETeff [1]: 11.6
FRETeff [2]: 15.1
Substance: YFP-tagged 4.1R^80 (Y-4.1R^80) (natural protein)
